Results taken from US9289506B2, “Surface binding of nanoparticle based drug delivery to tissue” (Massachusetts Institute of Technology, priority 2013, dated 2016).

Key:
[1] = Dose dependent biological response to Avidin in bovine cartilage explants (viability, sGAG loss, biosynthesis); assay type: cell-based
Description: Briefly, cylindrical cartilage disks (3 mm) were cored using a dermal punch and then sliced to obtain the top 1 mm of cartilage with intact superficial zone. Cartilage disks for all treatment groups were matched for depth and location along the joint surface. They were equilibrated in serum free medium (low glucose Dulbecco's Modified Eagle's Medium [DMEM; 1 g/L]) supplemented with 10 mM HEPES buffer, 0.1 mM nonessential amino acids, 0.4 mM proline, […] ascorbic acis, 100 units/ml penicillin G, 100 µg/ml streptomycin and […] amphotericin B (all from Sigma Aldrich, MO) for 48 h in a 5% CO2 incubator at 37° C. prior to any treatment. […] The medium was changed every 2 days without replenishing Avidin. This simulated the in-vivo condition of one time Avidin injection. The experiment was conducted for three time periods: 2, 4 and 10 days. Upon termination of culture at these time points, 100-200 μm thick slices were cut from the center of disks from each treatment condition. The slices were immediately stained for 2-3 minutes in the dark with fluorescein diacetate (FDA; 4 mg/ml in PBS) and propidium iodide (PI; 40 mg/ml in PBS) (both from Sigma Aldrich, MO). FDA was used to stain the viable cells green, while PI stained the non-viable cells red. The slices were washed with PBS and then imaged using Nikon fluorescence microscope with a 4× objective. Two days before the termination of culture of day 4 and day 10 experiments, the medium was supplemented with 5 μCi/mL [^35S]-sulfate and 10 μCi/mL [^3H]-proline (both from PerkinElmer, Norwalk, Conn.). […] The wet weight was measured for each disk and then digested with proteinase K (Roche, Indianapolis, Minn.) overnight. The cumulative sGAG content in the medium and digested explants was measured using the DMMB assay. The amount of radiolabel in each digested sample and medium standards (^35S and ^3H) were measured using a liquid scintillation counter. Radiolabeled concentration was calculated from the standards and then normalized to the wet weight.

[2] = dilute solution of DI water at pH 5; cited from earlier work
[3] = Non-equilibrium diffusive transport across cartilage disks (transport cell); assay type: in vitro ADME, bovine; details: 400 μm thick disks, 20° C.
Description: Real-time measurement of diffusive transport of Avidin and NeutrAvidin through young bovine cartilage disks (with intact superficial zone) was measured using a diffusion chamber consisting of two compartments as described previously (Garcia et al., Arch Biochem Biophys, 2003). Groups of three cartilage disks (6 mm diameter, 400 μm thick) were clamped by O-rings between the two compartments of the diffusion chamber (with total exposed tissue area for transport of 0.28 cm^2/disk), such that solute transport from the upstream compartment into and across the cartilage disks, simultaneously, could occur only from the superficial zone of the cartilage (schematic shown in the inset of FIG. 14). The compartments were treated with casein to prevent non-specific adsorption of solutes to the chamber surfaces. […] Aliquots were taken from each chamber at different time intervals, and fluorescence was measured using a plate reader.
The compartment volume of 25 ml is approximately 1,000× larger than the volume of the cartilage plugs in the configuration of FIG. 14 (inset). […] This configuration thereby focuses on quantitation of steady state solute flux and assessment of effective solute diffusivity within cartilage. […]
[formula] where δ is the thickness of the cartilage disk (˜400 μm). DEFF for Avidin was calculated to be 3.8×10^−7 cm^2/s. […]

Avidin: positively charged globular glycosylated tetrameric protein, pI 10.5, 66 kDa, diameter ~7 nm (Invitrogen); SEQ ID NO 1
cumulative sGAG loss to medium vs untreated control ([1]; 100 nM and 1 μM, 4 and 10 days): no significant difference
cumulative sGAG loss to medium ([1]; 100 μM, 4 days): 14.6%
cumulative sGAG loss to medium ([1]; 100 μM, 10 days): 20%
increase in sGAG loss compared to untreated control ([1]; 100 μM, both 4 and 10 days): about 2 folds
rate of protein and sGAG synthesis ([1]; increasing dose 0-100 μM, last 48 h of culture): no significant changes
chondrocyte viability (live-dead fluorescence) ([1]; one time dose 0-100 μM, 2, 4 and 10 days): no significant difference in cell viability
safe dose ([1]; one time dose, bovine cartilage explants): at least 1 μM
zeta potential [2]: 10 mV
time lag τlag to achieve the steady state flux [3]: ~35 min
